{
  "source": "patent US20170014524A1",
  "about": "(CALIFORNIA INSTITUTE FOR BIOMEDICAL RESEARCH, published 2017)",
  "target": "CXCR4 (C-X-C chemokine receptor type 4) (UniProt P61073 1-352, limits assumed)",
  "sequence (P61073 whole entry)": "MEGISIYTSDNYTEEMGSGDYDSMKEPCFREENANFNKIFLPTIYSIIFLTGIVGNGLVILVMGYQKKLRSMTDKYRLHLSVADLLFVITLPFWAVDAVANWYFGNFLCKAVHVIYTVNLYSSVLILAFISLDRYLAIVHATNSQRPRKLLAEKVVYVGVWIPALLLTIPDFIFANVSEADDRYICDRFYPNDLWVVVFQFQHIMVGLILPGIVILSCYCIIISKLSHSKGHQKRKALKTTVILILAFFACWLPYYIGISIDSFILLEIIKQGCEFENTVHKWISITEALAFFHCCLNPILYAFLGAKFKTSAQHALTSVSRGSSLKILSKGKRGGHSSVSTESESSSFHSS",
  "experiment": "cell-based or functional assay",
  "data": [
    {"binder": "anti-CXCR4 IgG antibody HLCX (antibody, V domains shown) VH: QVQLVESGGGLVQPGGSLRLSCAASGFNIKDTYIHWVRQAPGKGLEWVARIYPTNGYTRYADSVKGRFTISADTSKNTAYLQMNSLRAEDTAVYYCSRETKKYQSYRKCRGGRRWCYQKSYTYNYEDYWGQGTLVTVSS VL: not shown", "values": [
      {"measurement": "IC50 (nM), cytotoxicity, Ramos (CXCR4+) cells, CellTiter-Glo, 4 days", "result": 89.4, "unit": "nM"}
    ]},
    {"binder": "anti-CXCR4-NC-MMAE conjugate (antibody, human IgG1, kappa, V domains shown, MMAE on a non-cleavable linker coupled by NHS ester to surface-exposed lysine residues, non-specific; estimated DAR ~2-3) VH: QVQLVESGGGLVQPGGSLRLSCAASGFNIKDTYIHWVRQAPGKGLEWVARIYPTNGYTRYADSVKGRFTISADTSKNTAYLQMNSLRAEDTAVYYCSRETKKYQSYRKCRGGRRWCYQKSYTYNYEDYWGQGTLVTVSS VL: not shown", "values": [
      {"measurement": "IC50 (nM), cytotoxicity, Jurkat (CXCR4+) cells, CellTiter-Glo, 4 days", "result": 4.6, "unit": "nM"},
      {"measurement": "IC50 (nM), cytotoxicity, Ramos (CXCR4+) cells, CellTiter-Glo, 4 days", "result": 0.89, "unit": "nM"}
    ]},
    {"binder": "anti-CXCR4-ValCit-MMAE conjugate (antibody, human IgG1, kappa, V domains shown, auristatin on a Val-Cit linker coupled by NHS ester to surface-exposed lysine residues, non-specific; estimated DAR ~2-3) VH: QVQLVESGGGLVQPGGSLRLSCAASGFNIKDTYIHWVRQAPGKGLEWVARIYPTNGYTRYADSVKGRFTISADTSKNTAYLQMNSLRAEDTAVYYCSRETKKYQSYRKCRGGRRWCYQKSYTYNYEDYWGQGTLVTVSS VL: not shown", "values": [
      {"measurement": "IC50 (nM), cytotoxicity, Jurkat (CXCR4+) cells, CellTiter-Glo, 4 days", "result": 9.2, "unit": "nM"},
      {"measurement": "IC50 (nM), cytotoxicity, Ramos (CXCR4+) cells, CellTiter-Glo, 4 days", "result": 2, "unit": "nM"}
    ]}
  ]
}
